Where no end group is shown, it is not given here.
Target: purified human fibrinogen (human) (UniProt P02671)
Experiment: cell-based or functional assay

purified human fibrinogen (human), sequence (P02671 20-629 limits assumed, chain 1 of 3): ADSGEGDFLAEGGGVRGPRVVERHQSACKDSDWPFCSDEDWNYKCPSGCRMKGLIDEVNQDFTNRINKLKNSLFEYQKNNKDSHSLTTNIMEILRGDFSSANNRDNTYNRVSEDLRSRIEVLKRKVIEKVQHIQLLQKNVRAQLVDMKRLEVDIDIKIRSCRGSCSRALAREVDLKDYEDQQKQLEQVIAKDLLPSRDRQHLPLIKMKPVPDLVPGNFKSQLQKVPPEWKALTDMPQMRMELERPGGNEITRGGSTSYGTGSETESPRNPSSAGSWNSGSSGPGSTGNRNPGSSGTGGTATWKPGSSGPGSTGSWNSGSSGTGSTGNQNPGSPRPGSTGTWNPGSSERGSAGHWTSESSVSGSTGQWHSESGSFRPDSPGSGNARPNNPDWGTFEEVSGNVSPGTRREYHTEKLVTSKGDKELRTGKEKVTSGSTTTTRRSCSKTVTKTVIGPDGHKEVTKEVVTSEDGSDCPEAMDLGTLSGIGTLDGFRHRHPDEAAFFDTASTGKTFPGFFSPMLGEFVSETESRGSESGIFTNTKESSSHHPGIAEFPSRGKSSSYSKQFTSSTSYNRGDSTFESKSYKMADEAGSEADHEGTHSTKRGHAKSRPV
purified human fibrinogen (human), sequence (P02675 31-491 limits assumed, chain 2 of 3, further chain): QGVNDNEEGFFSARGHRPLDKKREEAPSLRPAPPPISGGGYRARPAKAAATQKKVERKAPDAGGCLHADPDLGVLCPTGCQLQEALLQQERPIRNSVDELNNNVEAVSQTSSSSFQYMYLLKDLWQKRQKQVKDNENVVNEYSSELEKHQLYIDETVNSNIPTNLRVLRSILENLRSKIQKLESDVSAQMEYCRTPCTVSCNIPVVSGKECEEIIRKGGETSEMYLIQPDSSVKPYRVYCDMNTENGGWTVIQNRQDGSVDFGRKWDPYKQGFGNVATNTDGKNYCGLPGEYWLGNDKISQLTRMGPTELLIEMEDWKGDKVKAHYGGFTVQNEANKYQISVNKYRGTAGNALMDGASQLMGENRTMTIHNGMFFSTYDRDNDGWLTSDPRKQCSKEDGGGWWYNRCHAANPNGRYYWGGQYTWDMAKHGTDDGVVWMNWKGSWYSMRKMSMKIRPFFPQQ
purified human fibrinogen (human), sequence (P02679 other isoform, or with tags, fused parts or gaps limits assumed, chain 3 of 3, further chain): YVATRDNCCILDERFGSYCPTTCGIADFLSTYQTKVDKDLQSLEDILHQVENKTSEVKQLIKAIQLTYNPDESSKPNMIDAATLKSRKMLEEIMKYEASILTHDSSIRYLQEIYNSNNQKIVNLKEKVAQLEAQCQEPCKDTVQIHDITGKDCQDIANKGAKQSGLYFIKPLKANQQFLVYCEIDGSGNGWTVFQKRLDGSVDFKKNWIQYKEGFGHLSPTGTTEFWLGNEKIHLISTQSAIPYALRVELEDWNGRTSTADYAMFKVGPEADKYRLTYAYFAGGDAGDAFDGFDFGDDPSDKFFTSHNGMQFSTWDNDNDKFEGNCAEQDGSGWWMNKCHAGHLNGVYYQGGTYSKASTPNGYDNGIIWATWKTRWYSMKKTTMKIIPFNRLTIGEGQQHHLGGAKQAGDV

- Clotting activity (seconds), non-irradiated control: 4.3 s
- Clotting activity (seconds), storage for 2 weeks post irradiation: 9.4 s
- Clotting activity (seconds), storage for 4 weeks post irradiation: 10 s
B1: Peptide dendrimer No. 13 (peptide, part only)
chain 1: GPRPG
chain 2: GHRPY
modifications: not fully specified (C-terminus); also: chimeric four-branch dendrimer: two copies of each chain, C-termini attached to a branched core of undefined make-up

From patent US20160324977A1
